According to a protein production outcome set (Wang et al. 2014):

Test: label from the status in PepcDB records

**Q.** For “MGFSFLLATVQKERMKRRSRTRSRSRRRAKQDPKTWVARYIPQDLLIEILTRLPPKSVMRFKCVSKFWSSLLSSRYFCNRFLIVPSQPQPSLYMCLLDRYNYSKSLILSSAPSTSPYSFVFDQDLTIRKMGGFFLRILRGFIFFTRNLKARIYNPTTRQLVILPTIKESDIIAGPPYNILYFICHDPVNDRYKLLCTVSYASDNDLQNLKSELWIFVLEAGGSWKRVANEFPHHVPSHLDLNMNGVLYFLAWTDPHTCMLVSFDVRSEEFNTMQVPRNAGDTLPRQEKGVVNRVW”, which protein production is on record?
**A.** The protein production was “failed”.

**Q.** For “MGGASWADTAMGGKGRHPDKALTTVQVRALKVPGRYADGNGLYLVVEPSGSKRWLLRTIVQGRRRDIGLGGAGLVTLAEAREKALAYRKLARDGGDPLAERRKARATVPTFAEAAEQVHEEHKASWKNPKHAAQWITTLRTYANPHLGARRVDQIETPDVLRALSPIWLTKGETARRVRQRIGTVLDWAKAAGHRTGDNPVESVAKGLPKQGERDEHHAALPYAEVPAFVTRLQSSDHGEAARLAFEFLILTAARTSEVLRAEWREIDEAEALWTVPAARMKAGREHRVPLSKRSLEIVRRAKLLAGDSAFIFPGRSTGKPMSNMVFLMALRRMKLTVTAHGFRSSFRDWAAEATSLPREVAEMALAHTIENRVEAAYRRGDLLAKRREMMEQWSTFVASKPKGDKPHKSSA”, which protein production is on record?
**A.** The protein production was “failed”.

**Q.** With “MGGDARRALFVPAPSPTLHRMLPDALRDTLEERLDATIESVASVRGGCIANACRLETDAAPFFLKHGPDEVARTFPGEAAGLEALGAADSPLVVPSVHDTAPATDDRPGFLVMEWVNPGREGRRFWDRFGEGLAALHRHTADAYGFGQDNFIGRLPQSNAWTDDWPTFFREQRLAPQVDMARERGRWRDGWGTALTTLYRRLPDILPRSPEPSVLHGDLWKGNYLVTAVGDPALVDPATYYGHREADLAMTELFGGYDDRFYDAYRSAWGLAPEYGTRRDVYNLYHLINHLNLFGGGYAAQVEDTLRPFK” as the sequence, how does the protein production read?
**A.** Its protein production is “failed”.

**Q.** With “MGGIARLYGDSALAHFSQAHVCVVGVGGVGSWAVEALARTGIGRLTLIDLDNVAESNVNRQLHALTGDFGKAKVTALRERITQINPQCEVFEIEDFVTEDNLPEYFGKGFDFVIDAIDQVRVKAAMAAYFVERKQPFVLSGGAGGQKNPALIQTADLSRVTHDPLLANLRYTLRKRYGFSRDTKANMRVPCVYSTENIVPPQSREACSADAAPQGLSCAGYGASMLVTASFGLYCAQAAVEHIADKKLEHHHHHH” as the sequence, how does the protein production read?
**A.** Its protein production is “failed”.

**Q.** With “MGGKRHQNSGKGGKGRAKDAASAPQPNAGKVTLEGRSFLYVGGRDCQVAHLRQIASSYGAELIHHDGGLREAVSRIDRVLPSVDCVFCPIDCISHDACLRVKTGCKKWGKAFVPLRNGSKSSLEHHHHHH” as the sequence, how does the protein production read?
**A.** Its protein production is “not failed”.

**Q.** For “MGGKTKKHAMRLFDRIAEKYDLLNRILSFGMDTKWRKRVVELILEVNPEKVLDLATGTGDVARLLKRKAPHLEITGLDSSSKMLEIAEKRLKDGEFIVGDAHNLPFYDRSFDAITVAFGFRNFSDRRRVLRECRRVLKRKGRLVILELLPPNTKRFTGKIYSFYLKTWVPFVGGLFSGDFHAYRYLSTSVLNFLTPDQIVEMMKEEGFEVSFEPLFFSVAGIFIGDLIWLEHHHHHH”, which protein production is on record?
**A.** The protein production was “failed”.

**Q.** Which protein production does the source give for “MGGMRWLLLAKQPALGGAAALEGVMMKAPWAWALAVRLPDGRIHVERHEERALTERYPWTRLPLLRGVVALFDALSVSYRALARSAELAGGEEVPRGALWGTVA” here?
**A.** The protein production was “failed”.

**Q.** Which protein production does the source give for “MGGSFGKKGASSATAAQVPLATETTPGLMSPSEKLKLSTLTTSIATSDFYASYDFMMHSIGLTSANNISLLSTGNISLQNILSEGNHFGVQPIVSSTTANASFLAGMLMAIFPKESELEVTVYFKTPSAFNPAQLTVIGSTSIGLGISDRSGLIIENGNAFGGIVKASAATETGSTYALSTSTWYICKFKMLTDDRFKVTLYSDSGTQLYSYTSTAAMFRADNATAHIGFKTQCKTATAGISLISIDLIEFKAKVSATRAKV” here?
**A.** Its protein production is “not failed”.

**Q.** With “MGHERDWSLVQVALTDITARKKAEAYLEYLGKHDVLTKLHNRAFYSDELNRLERSALRPVSAIVIDLNGLKEANDKLGHDAGDALLRRVGEVLNGVVTAPNHAARIGGDEFAILLPGADKQVAAAMVDTVYELLKINNQFYSSAPLSLSLGVATTEAGETMESLVRRADMNMYEQKNAYYAALRNRSADNNDTTKGLEHHHHHH” as the sequence, how does the protein production read?
**A.** Its protein production is “not failed”.

**Q.** For “MGHHHHHHSHGLCYDLCRFGAVVAEDGYYVDEKKCEGCAFCFNVCPERAIEMENVKTGDLYVSKTEWGYFVHARLKPGEENTGRLVTEVKNRAKEIAEESNAEFLIVDSAPGVGCPVMASLTGVDAAIIVTEPTVSGLSDMLRILELCEHFRIRPFVVVNKFDLNVNIASEIESYCSENGVEFAGRVPFDKAIPEQIANLNFPFSGKAADKMVEIWKKLRE”, which protein production is on record?
**A.** Its protein production is “failed”.

**Q.** Which protein production does the source give for “MGHHHHHHSHMGNIPEAIASYRTALKLKPDFPDAYCNLAHCLQIVCDWTDYDERMKKLVSIVADQLEKNRLPSVHPHHSMLYPLSHGFRKAIAERHGNLCLDKINVLHKPPYEHPKDLKLSDGRLRVGYVSSDFGNHPTSHLMQSIPGMHNPDK” here?
**A.** Its protein production is “failed”.

**Q.** For “MGHHHHHHSHMIEHDPVKPRQLPKTIGCSKNFPGKTALATREQVQWWLLQLAQELEERLTKDRNDNDRVATQLVVSIRVQGDKRLSSLRRCCALTRYDAHKMSHDAFTVIKNCNTSGIQTEWSPPLTMLFLCATKFSASAP”, which protein production is on record?
**A.** The protein production was “not failed”.

**Q.** Which protein production does the source give for “MGHHHHHHSHMIRINEIKLPLDHEEGALLDAITKKLGIPAEKVISFNVFRRGYDARKKTNIHLIYTLDIIVEGDETALLAKFANDPHVRQTPDMEYKFVAKAPENLTERPIVIGFGPCGLFAGLVLAQMGFNPIIVERGKEVRERTKDTFGFWRKRTLNPESNVQFGEGGAGTFSDGKLYSQVKDPNFYGRKVITEFVEAGAPEEILYVSKPHIGTFKLVTMIEKMRATIIELGGEIRFSTRVDGLHMEDGQITGVTLSNGEEIKSRHVVLAVGHSARDTFEMLHERGVYMEAKPFSVGFRIEHKQSMIDEARFGPNAGHPILGAADYKLVHHCKNGRTVYSFCMCPGGTVVAATSEEGRVVTNGMSQYSRAERNANSAIVVGISPEVDYPGDPLAGIRFQRELESNAYKLGGENYDAPAQKIGDFLKGRDPSQLGDVEPSFTPGIKLTDLSKALPPFAVEAIREAIPAFDRKIKGFASEDGLLTGVETRTSSPVCIKRGKDFQSVNLKGFYPAGEGAGYAGGILSAGIDGIKVAEAVARDIVAAMENA” here?
**A.** Its protein production is “not failed”.

**Q.** Which protein production does the source give for “MGHHHHHHSHMISWLTGEELHVEVLENVPLTTHNFVRKTFFTLAFCDFCRKLLFQGFRCQTCGYKFHQRCSTEVPLMCVNYDQLDLLFVSKFFEHHPIPQEEASLAETA” here?
**A.** The protein production was “not failed”.

**Q.** Which protein production does the source give for “MGHHHHHHSHMLPPEQWSHTTVRNALKDLLKDMNQSSLAKECPLSQSMISSIVNSTYYANVSAAKCQEFGRWYKHFKKTKDMM” here?
**A.** The protein production was “not failed”.

**Q.** For “MGHHHHHHSHMNSCILQATVVEAPQLRYTQDNQTPVAEMVVQFPGLSSKDAPARLKVVGWGAVAQELQDRCRLNDEVVLEGRLRINSLLKPDGNREKQTELTVTRVHH”, which protein production is on record?
**A.** Its protein production is “not failed”.

**Q.** With “MGHHHHHHSHMPSYTVTVATGSQWFAGTDDYIYLSLVGSAGCSEKHLLDKPFYNDFERGAVDSYDVTVDEELGEIQLVRIEKRKYWLNDDWYLKYITLKTPHGDYIEFPCYRWITGDVEVVLRDGRAKLARDDQIHILKQHRRKELETRQKQYRWMEWNPGFPLSIDAKCHKDLPRDIQFDSEKGVDFVLNYSKAMENLFINRFMHMFQSSWNDFADFEKIFVKISNTISERVMNHWQEDLMFGYQFLNGCNPVLIRRCTELPEKLPVTTEMVECSLERQLSLEQEVQQGNIFIVDFELLDGIDANKTDPCTLQFLAAPICLLYKNLANKIVPIAIQLNQIPGDENPIFLPSDAKYDWLLAKIWVRSSDFHVHQTITHLLRTHLVSEVFGIAMYRQLPAVHPIFKLLVAHVRFTIAINTKAREQLICECGLFDKANATGGGGHVQMVQRAMKDLTYASLCFPEAIKARGMESKEDIPYYFYRDDGLLVWEAIRTFTAEVVDIYYEGDQVVEEDPELQDFVNDVYVYGMRGRKSSGFPKSVKSREQLSEYLTVVIFTASAQHAAVNFGQ” as the sequence, how does the protein production read?
**A.** Its protein production is “failed”.

**Q.** For “MGHHHHHHSHMRCQESMSAVLTAEQALKLVGEMFVYHMPFNRALGLELERYEKAFAQLAFNNQPMMVGNWAQSILHGGVIASALDVAAGLVCVGSTLTRHETISEDELRQRLSRMGTIDLRVDYLRPGRGNRFTATSSLLRAGNKVAVARVELHNEDQLYIASATATYMVG”, which protein production is on record?
**A.** The protein production was “failed”.

**Q.** Which protein production does the source give for “MGHHHHHHSHMSGEKTVVCKHWLRGLCKKGDQCEFLHEYDMTKMSECYFYSKFGECSNKECPFLHIDPESKI” here?
**A.** Its protein production is “not failed”.

**Q.** For “MGHHHHHHSHMSYKPNLAAHMPAAALNAAGSVHSPSTSMATSSQYRQLLSDYGPPSLGYTQGTGNSQVPQSKYAELLAIIEELGKEIRPTYAGSKSAMERLKRGIIHARGLVRECLAETERNARS”, which protein production is on record?
**A.** The protein production was “failed”.

**Q.** Which protein production does the source give for “MGHHHHHHSHMTHSDKPYKCDRCQASFRYKGNLASHKTVHTGEKPYRCNICGAQFNRPANLKTHTRIHSGEKPY” here?
**A.** Its protein production is “not failed”.

**Q.** Which protein production does the source give for “MGHHHHHHSHSPSPSSRVTVSRASSSRSVRTTRGKRKRVDVEESEASSSVSISHSASATGNVCIEEIDVDGKFIRLKNTSEQDQPMGGWEMIRKIGDTSVSYKYTSRYVLKAGQTVTIWAANAGVTASPPTDLIWKNQNSWGTGEDVKVILKNSQGEEVAQRSTVFKTTIPEEE” here?
**A.** Its protein production is “not failed”.

**Q.** With “MGHHHHHHSHSSFQTMDQMVSNMRNYMQKLERNFGQLSVDPNGHSFCSSSVMTYSKIGDEP” as the sequence, how does the protein production read?
**A.** The protein production was “failed”.

**Q.** Which protein production does the source give for “MGHLSAPLHRVRVPWQGLLLTASLLTFWNPPTTAQLTTESMPFNVAEGKEVLLLVHNLPQQLFGYSWYKGERVDGNRQIVGYAIGTQQATPGPANSGRETIYPNASLLIQNVTQNDTGFYTLQVIKSDLVNEEATGQFHVYPELPKPSISSNNSNPVEDKDAVAFTCEPETQDTTYLWWINNQSLPVSPRLQLSNGNRTLTLLSVTRNDTGPYECEIQNPVSANRSDPVTLNVTYGPDTPTISPSDTYYRPGANLSLSCYAASNPPAQYSWLINGTFQQSTQELFIPNITVNNSGSYTCHANNSVTGCNRTTVKTIIVTELSPVVAKPQIKASKTTVTGDKDSVNLTCSTNDTGISIRWFFKNQSLPSSERMKLSQGNTTLSINPVKREDAGTYWCEVFNPISKNQSDPIMLNVNYNALPQENGLSPGAIAGIVIGVVALVALIAVALACFLHFGKTGRASDQRDLTEHKPSVSNHTQDHSNDPPNKMNEVTYSTLNFEAQQPTQPTSASPSLTATEIIYSEVKKQ” here?
**A.** Its protein production is “failed”.

**Q.** With “MGIKHLNLTVADVVAAREFLEKYFGLTCSGTRGNAFAVMRDNDGFILTLMKGKEVQYPKTFHVGFPQESEEQVDKINQRLKEDGFLVEPPKHAHAYTFYVEAPGGFTIEVMC” as the sequence, how does the protein production read?
**A.** The protein production was “not failed”.

**Q.** For “MGILSGNPQDEPLHYGEVFSTWTYLSTNNGLINGYRSFINHTGDEDLKNLIDEAIQAMQDENHQLEELLRSNGVGLPPAPPDRPAARLDDIPVGARFNDPEISATISMDVAKGLVTCSQIIGQSIREDVALMFSQFHMAKVQFGGKMLKLNKNKGWLIPPPLHSDRPIKE”, which protein production is on record?
**A.** The protein production was “not failed”.

**Q.** With “MGIPEEIPPVFKTAVDVLRGASFGVADASILGYPATSMTLNQQVDNFRSMKSNWIDDFIGRSLFMIYIGTEDKLNFTKNKPNAASICHFRY” as the sequence, how does the protein production read?
**A.** Its protein production is “failed”.

**Q.** For “MGIREDIKTVFEKDPAARSTLEVLCCYPGLHAIWMHRVAHSLWNKDLLFLARLTSHISRALTGIEIHPGAKLGKRVFIDHGSGVVIGETAEVGDDVLIYMGVVLGGTALEKKKRHPTVENNAVLGSGAIVLGPITIGRGAKVGAGSVVVRSVPPEATVVGVPARIAGTPQPSAPSEQLDHNKLPDPVLTVISQVLDRMSRLEERFQAHEKASTTPVPVSFVSSENPSVKKDEQIYSLLKDVIDPAVGIDIVNLGFVKEVTVNGTNVDVNLVLTTSACPMIEYFRNQVKRKVMGIKGIENVTVNILDEPWKWDGAGRQAFH”, which protein production is on record?
**A.** The protein production was “failed”.
